Experimental data taken from patent publication US8691960B2, “Oxidoreductases for enantioselective reactions” (Duke University, priority 2012, dated 2014).
Numbering of substitutions follows the chain as printed. Names and notes keep the numbering of the source. “Also recorded” adds a separate entry of the source.

Columns and labels:
Assay type in all cases: biochemical
[1] = Enantiospecific LC-MS/MS quantification of (R)- and (S)-2-hydroxyadipate product; conditions: for Enantiomeric Excess: Table 3, (R)-2-hydroxyadipate product
Method: Quantitative, enantiospecific LC-MS/MS was performed based on the procedure described for 2-hydroxyglutarate. Jin et al., PLoS one 6, e16812: 1-8 (2011); Struys, et al., Clin. Chem. 50: 1391-1395 (2004). To 20 μL of reaction mix, 2 μL of 130 μg/mL of a racemic mixture of [3,3,4,4-^2H4]-2-hydroxyglutarate (internal standard) in water was added and the mixture dried by vacuum centrifuge (50° C., 15 min). The dry residue was treated with 50 mg/mL freshly prepared diacetyl-L-tartaric anhydride (Sigma) in dichloromethane/glacial acetic acid (4:1 by volume) and heated (75° C., 30 min). After drying (50° C., 15 min) the residue was dissolved in 100 μL of LC mobile phase A (see below) for analysis. An Agilent 1200 series HPLC (Santa Clara, Calif.) was used for liquid chromatography (LC) and a Sciex/Applied Biosystems API 3200 QTrap (Carlsbad, Calif.) was used for triple quadrupole mass spectrometry (MS/MS). Mobile phase A: water, 3% acetonitrile, 280 μL ammonium hydroxide (^˜25%), pH adjusted to 3.6 with formic acid (^˜98%). Mobile phase B: methanol. Analytical column: Kinetex C-18, 150×4.6 mm, 2.6 μm, and SafeGuard C-18 4×3 mm guard-column from Phenomenex (Torrance, Calif.). Column temperature: 45° C. Elution gradient at 1 mL/min flow rate: 0-1 min 0% B, 1-2 min 0-100% B, 2-3.5 min 100% B, 3.5-4 min 100-0% B, 4-10 min 0% B. Injection volume: 10 μL. Q1/Q3 (m/z) transitions were monitored: 377/161, 2-hydroxyadipate (2HA) and 367/151, [3,3,4,4-^2H4]-2-hydroxyglutarate (2HG-d4). To calibrate, 0, 0.16, 0.54, 1.8, 6, and 20 μg/mL 2-hydroxyadipate (Sigma), synthesized as described above, was analyzed in reaction buffer. (R)- and (S)-enantiomers were discriminated based on time of elution from the HPLC column, using the relative elution time for (R)-2-hydroxyglutarate compared to the racemic mixture of 2-hydroxyglutarate described previously to identify the (R)-2-hydroxyadipate enantiomer. Jin et al., PLoS one 6, e16812: 1-8 (2011). Standards were analyzed alongside experimental samples. Accuracy acceptance criteria were 85% for all but the lowest level (0.16 μg/mL, 80%).

[2] = 2-hydroxyadipate dehydrogenase activity of crude bacterial lysates expressing ScHIDH mutants; conditions: for reaction rate relative to ScHIDH-R143H: crude lysates, 15 mM 2-oxoadipate; for 2-hydroxyadipate dehydrogenase activity in crude bacterial lysates: 100 μM NADH substrate
Method: To obtain crude lysates, 0.5 mL of starter cultures generated as described above were added to 4.5 mL LB-Amp, shaken for 2 h, and shaken for an additional 2 h after induction with 1 mM IPTG. Pellets from these cultures were harvested by centrifugation at 4500×g at 4° C. These pellets were resuspended into 500 μL of Buffer A (0.2% Triton-X 100, 1 mM PMSF, 0.5 mM EDTA, 10 mM Tris, pH 7.5) on ice and sonicated for 6-cycles of 15 seconds each on ice on a Sonifer 250 (Branson). This was then spun down at 13,000×g at 4° C. for 15 min and the cleared lysates were normalized with additional lysis buffer to 700 ng/4 and stored at −80° C. as aliquots. Protein concentrations were determined using the BioRad Protein Assay reagent according to the manufacturer's instructions.
(§1) NADH, 2-oxoadipate, 2-oxoglutarate, 2-heptandioate, and MgCl2 were from Sigma. Standard reaction mixes contained 15 mM 2-oxoadipate, 100 μM NADH, and a reaction buffer with final concentrations of 20 mM MgCl2 and 500 mM HEPES, pH 7.3. NADH oxidation was monitored by the decrease in fluorescence with excitation of 340 nm and emission of 450 nm on a PolarSTAR Optima plate reader (BMG Labtech). Fluorescence monitored reactions were carried out in 10-μL volumes in a 384-well black microplate (Greiner 788076) covered with clear optical film. The levels of fluorescence were converted to NADH concentrations based on standards of NADH in reaction buffer containing BSA. Reactions with high amounts of NADH were monitored by the UV absorbance of NADH at 340 nm in 40-μL reaction volumes in clear 96-well plates.
(§2) Reaction rates are NADH oxidation per unit time per unit of purified enzyme or crude lysate and 1 Unit (U) is 1 μmolNADH min^−1 mgenzyme^−1. Rates are initial rates calculated by least squares linear regression on the first 10 minutes of the reaction. For KM determination, concentrations of substrate/cofactors at least 5×-higher than the KM were used, while the species of interest was varied in concentration; substrate/cofactor concentrations: 500 μM NADH; 15 mM 2-oxoadipate; 20 mM MgCl2. Reported α-hydroxyadipate (2-hydroxy adpic acid) Vmax values were obtained from 2-oxoadipate KM determination experiments. Michaelis-Menten KM and Vmax parameters were estimated by fitting data to a curve using nonlinear regression in GraphPad Prism 5.0 (GraphPad Software, La Jolla, Calif.).

[3] = Kinetic characterization of ScHIDH mutants: KM 2-oxoadipate and Vmax; conditions: for Km / Vmax: Table 3; for Km: 40 ng/μL enzyme, 500 μM NADH, 20 mM MgCl2, pH 7.3, 25° C.; for Vmax: from 2-oxoadipate KM experiments
Method: as §2
(§3) Assays were performed with 40 ng/μL enzyme, 15 mM 2-oxoadipate, 100 μM NADH, 20 mM MgCl2 and 100 mM HEPES, pH 7.3 in 10 or 20 μL volumes in 384-well black microplates. NADH concentration was monitored by the decrease in fluorescence (excitation wavelength: 340 nm; emission wavelength: 450 nm) on a fluorescent plate reader. The fluorescence intensities were converted to NADH concentrations based on NADH standards. Reactions with high amounts of NADH (>300 μM) were monitored by the UV absorbance of NADH at 340 nm in a 40 μL reaction volume in a clear 96-well plate on the same plate reader. Reactions with ScHIDH were carried out at 25° C. and reactions with TtHIDH were carried out at 45° C. Reported rates are initial rates from the first 10 minutes of reaction. For KM determination, concentrations of substrate at least 5×-higher than the KM were used (for NADH, 500 μM; for 2-oxoadipate, 15 mM) while the substrate of interest was varied in concentration. KM and Vmax were estimated by fitting data to equation (1) using nonlinear regression, where x is substrate concentration and y is the rate. y=Vmax·x/KM+x (1) Rate data for ScHIDH-R143C, -R143H, and -R143K are summarized in Table 3.

[4] = Kinetic characterization of ScHIDH mutants: KM NADH; conditions: Table 3; 15 mM 2-oxoadipate, 20 mM MgCl2, pH 7.3, 25° C.
Method: as §2, §3

[5] = NADH oxidation rate of purified HIDH enzymes with 2-oxoadipate (fluorescence / UV 340 nm); conditions: 100 μM NADH
Method: as §1, §2, §3

[6] = NADH oxidation with 2-oxoadipate plus CO2 added as NaHCO3 (reductive carboxylation)
Method: as §1, §2

B1: ScHIDH-R143K: Saccharomyces cerevisiae homoisocitrate dehydrogenase R143K mutant (protein)
chain: MFRSVATRLSACRGLASNAARKSLTIGLIPGDGIGKEVIPAGKQVLENLNSKHGLSFNFIDLYAGFQTFQETGKALPDETVKVLKEQCQGALFGAVQSPTTKVEGYSSPIVALRREMGLFANVRPVKSVEGEKGKPIDMVIVKENTEDLYIKIEKTYIDKATGTRVADATKRISEIATRRIATIALDIALKRLQTRGQATLTVTHKSNVLSQSDGLFREICKEVYESNKDKYGQIKYNEQIVDSMVYRLFREPQCFDVIVAPNLYGDILSDGAAALVGSLGVVPSANVGPEIVIGEPCHGSAPDIAGKGIANPIATIRSTALMLEFLGHNEAAQDIYKAVDANLREGSIKTPDLGGKASTQQVVDDVLSRL
modifications: ScHIDH R143K polypeptide
notes: Saccharomyces cerevisiae homoisocitrate dehydrogenase R143K mutant
Enantiomeric Excess [1]: > 92% | reaction rate relative to ScHIDH-R143H ([2]; 800 μM NADH): 83.0±0.03% | reaction rate relative to ScHIDH-R143H ([2]; standard conditions of 100 μM NADH): 3.6±0.3% | Km [3]: 9.4 mM | Vmax [3]: 0.011 µmol/min/mg | Km [4]: 1.1 mM

B2: ScHIDH-R115Q: Saccharomyces cerevisiae homoisocitrate dehydrogenase R115Q mutant (protein)
chain: B1 chain with R115Q, K143R
modifications: ScHIDH R115Q polypeptide
notes: Saccharomyces cerevisiae homoisocitrate dehydrogenase R115Q mutant
NADH oxidation by purified enzyme in the presence of 2-oxoadipate ([5]; standard reaction conditions, 10 mM 2-oxoadipate, 20 mM MgCl2): behaved essentially the same as wild type; also recorded: did not oxidize NADH | NADH oxidation when CO2 was provided as NaHCO3 ([6]; purified enzyme, 15 mM 2-oxoadipate, 100 μM NADH, 0-42 mM NaHCO3): did oxidize NADH | 2-hydroxyadipate dehydrogenase activity in crude bacterial lysates [2]: did not demonstrate 2-hydroxyadipate dehydrogenase activity

B3: ScHIDH-Y150D: Saccharomyces cerevisiae homoisocitrate dehydrogenase Y150D mutant (protein)
chain: B1 chain with K143R, Y150D
modifications: ScHIDH Y150D polypeptide
notes: Saccharomyces cerevisiae homoisocitrate dehydrogenase Y150D mutant
2-hydroxyadipate dehydrogenase activity in crude bacterial lysates [2]: did not demonstrate 2-hydroxyadipate dehydrogenase activity

B4: ScHIDH-R143C: Saccharomyces cerevisiae homoisocitrate dehydrogenase R143C mutant (protein)
chain: B1 chain with K143C
modifications: ScHIDH R143C polypeptide
notes: Saccharomyces cerevisiae homoisocitrate dehydrogenase R143C mutant
Enantiomeric Excess [1]: > 99.2% | 2-hydroxyadipate dehydrogenase activity in crude bacterial lysates [2]: did not demonstrate 2-hydroxyadipate dehydrogenase activity | Km [3]: 11 mM | Vmax [3]: 0.065 µmol/min/mg | maximal turnover compared with other ScHIDH mutants ([3]; in vitro data): highest maximal turnover of any ScHIDH mutant assayed | Km [4]: 0.32 mM

B5: ScHIDH-V111D: Saccharomyces cerevisiae homoisocitrate dehydrogenase V111D mutant (protein)
chain: B1 chain with V111D, K143R
modifications: ScHIDH V111D polypeptide
notes: Saccharomyces cerevisiae homoisocitrate dehydrogenase V111D mutant
2-hydroxyadipate dehydrogenase activity in crude bacterial lysates [2]: did not demonstrate 2-hydroxyadipate dehydrogenase activity

B6: ScHIDH-R114Q: Saccharomyces cerevisiae homoisocitrate dehydrogenase R114Q mutant (protein)
chain: B1 chain with R114Q, K143R
modifications: ScHIDH R114Q polypeptide
notes: Saccharomyces cerevisiae homoisocitrate dehydrogenase R114Q mutant
2-hydroxyadipate dehydrogenase activity in crude bacterial lysates [2]: did not demonstrate 2-hydroxyadipate dehydrogenase activity

B7: TtHIDH-R118H: Thermus thermophilus homoisocitrate dehydrogenase R118H mutant (protein)
chain: MAYRICLIEGDGIGHEVIPAARRVLEATGLPLEFVEAEAGWETFERRGTSVPEETVEKILSCHATLFGAATSPTRKVPGFFGAIRYLRRRLDLYANVRPAKSRPVPGSRPGVDLVIVHENTEGLYVEQERRYLDVAIADAVISKKASERIGRAALRIAEGRPRKTLHIAHKANVLPLTQGLFLDTVKEVAKDFPLVNVQDIIVDNCAMQLVMRPERFDVIVTTNLLGDILSDLAAGLVGGLGLAPSGNIGDTTAVFEPVHGSAPDIAGKGIANPTAAILSAAMMLDYLGEKEAAKRVEKAVDLVLERGPRTPDLGGDATTEAFTEAVVEALKSL
modifications: TtHIDH R118H polypeptide
notes: Thermus thermophilus homoisocitrate dehydrogenase R118H mutant
decrease of NADH concentration after 2 h ([5]; TtHIDH, 15 mM 2-oxoadipate, 45° C., 2 h): 61.3 µM | initial rate of NADH oxidation ([5]; TtHIDH, 15 mM 2-oxoadipate, 45° C., U = μmol NADH min^−1 mg^−1): 0.058±0.0031 U | rate of NADH consumption with NaHCO3 added ([6]; TtHIDH, 2-oxoadipate and NADH, CO2 added as NaHCO3): 0.059 U | increase of (R)-2-hydroxyadipate concentration after 2 h ([1]; TtHIDH, 100 μM NADH, 15 mM 2-oxoadipate, 45° C., 2 h): 61.3 µM | increase of (S)-2-hydroxyadipate ([1]; TtHIDH, same reaction, 2 h): No increase
